Results from article PMC10471174.

Target: T1, purified human SAP30 protein (GST removed) (human), O75446
T1 chain: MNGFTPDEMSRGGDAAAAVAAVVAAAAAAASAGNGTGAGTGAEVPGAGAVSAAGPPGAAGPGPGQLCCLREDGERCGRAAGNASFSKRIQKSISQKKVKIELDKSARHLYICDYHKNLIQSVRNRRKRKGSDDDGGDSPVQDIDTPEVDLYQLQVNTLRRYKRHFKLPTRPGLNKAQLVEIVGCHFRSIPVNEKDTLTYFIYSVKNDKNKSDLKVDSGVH
Test: SDS-PAGE under non-reducing conditions; purified SAP30 (GST removed) treated with or without β-mercaptoethanol and boiling; Coomassie staining and immunoblot
Conditions: remark: other sources report otherwise

- stoichiometry N: 2
B1: purified human SAP30 protein (GST removed), O75446 1-220 (natural protein)
chain: MNGFTPDEMSRGGDAAAAVAAVVAAAAAAASAGNGTGAGTGAEVPGAGAVSAAGPPGAAGPGPGQLCCLREDGERCGRAAGNASFSKRIQKSISQKKVKIELDKSARHLYICDYHKNLIQSVRNRRKRKGSDDDGGDSPVQDIDTPEVDLYQLQVNTLRRYKRHFKLPTRPGLNKAQLVEIVGCHFRSIPVNEKDTLTYFIYSVKNDKNKSDLKVDSGVH
